Experiment: yeast display, Sf9 membrane polyspecificity reagent, FACS + sequencing; frameworks hold sequencing errors
In short: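 A synthetic nanobody library was expressed on Saccharomyces cerevisiae BJ5465 by galactose induction for 36–48 hours. The library was stained for 1 hour at 4 °C with 10% biotinylated, detergent-solubilized Sf9 membrane reagent and enriched with streptavidin microbeads before FACS. Low and high (top ~1%) gates were set on anti-HA fluorescence for expression and streptavidin fluorescence for reagent binding, and each polyreactivity label reflects the gate of origin.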

Sequence	polyreactivity (PSR sort gate)
QDQLVESAGGLVQAGGSLRLSCAASGFTFINNDMGWYRQAPGKERELVAAISDSDGTTYYADSVKGRFTISLDHAKNTVYLQMNSLKPEDTAGYYCAADVVPTWEDEYWRQGTQVTVSS	low polyreactivity
QDQLVESAGGLVQAGGSLRLSCAASGSTSQSNAMGWYREAPGKDRELVAAISWSGTSTYYADSVKGRFTISRDNAKNTVYLQMNRLKPEDTAGYYCAADYIFEYDYWGQGTQVTVSS	low polyreactivity
QDQLVESGGCLVQAGGSLPLSCAASVFTFSNNVMGWYRQAPGQVRELVATLSKSGGSTYYAVSVKVRFTISRDKAKNSVYLQMNSLNPEATEVYYCASRFGDYGRFAYWGQGTQVSVSS	high polyreactivity
QDQLVESGGCLVQAGGSLRLSCAASGGTFLYYAMGWYRQAPGKERELVAAISRGGSTHYADSVKGRFTISRDNAKNTVYLQMNSLKPEDTAVYYCAAVRSHRKRINFYDYWGQGTQVTVSS	low polyreactivity
QDQLVESGGCLVQAGGSLRLSCAASGGTFRVYAMGWYRQAPGKERELVAAITGRGGSTYYADSVKGRFTISRDNAKNTVYLQMNSLKPDDTAVDYCNKEPELVEYDYWGQGTQVTVSS	low polyreactivity
QDQLVESGGFLVQAGGSLRLSCAASGRTFSYYDMGWYRQAPGKERELVAAISSGGSTNYADSVKARFTISRENAKNTFYLQMNSLKPEDTGVSYCATSCIWGYGRVRWVTYYYWGQGTQVTVSS	low polyreactivity
QDQLVESGGGFVQAGGSLRLSCAASGFIYDNEMGWYRQAPGKERELVASITSRGGNTYYADSVKGRFTISRDNAKNTVYLQMNSLKPEETAVYYCAARYYWGSYGPYGYWGQGTQLTVSS	high polyreactivity
QDQLVESGGGFVQAGGSLRLSCAASGFTFGSNTMGWSRQAPGKERELVAAITTSGDSTYYADSVKGRFTLSRDNAKNTVYLQMNSLKPEDTAVYDCAARRGYPRFEYWGQGTQVTVSS	high polyreactivity
QDQLVESGGGIVQAGGSLRLSCAASGFTFLYSAMGWYRQAPGKERELVAAINRSGGRTYYADSVKGRFTISRDNAKNTVYLQMNSLKPEDTAVYYCATDTYFRSSVVFRYDYWGQGTQVTVSS	high polyreactivity
QDQLVESGGGIVQAGGSLRLSCAASGSTFWHNVMGWYRQAPGKERELVAAISTAGSSTYYADSVKGRFTISRDHAKNTVYLQMNSLKPEDTAVYYCAAQWPKSKYGYWGQGTQVTVSS	high polyreactivity
QDQLVESGGGLDQAGCTLRLSCAASVGTFRYYAMGWYRQAPGKERELVASISSGGSTNYADSVKGRFTISRDNAKNTVYLQMNSLKPEDTAVYYCNADPRRPVTSYDYWGQGTQVTVSS	low polyreactivity
QDQLVESGGGLDQAGGSLRLSCAAYGSTFGYYALGWSRQAPGKERELVAAISWSGSNTYYADSVKGRFTISRDNAKNTVYLQMNSLTPEDTAVYYCAAVYRGSRAWGYDYWGQGTQVTVSS	high polyreactivity
QDQLVESGGGLLQAGASLRLSCAASGFIFDSYAIGWDRQAPGKERELVAAITSSGSSTYYADSVKGRFTISRDNAKNTVYLQMNSLKPEDTAVYYCNAVYSATVVAWRFGYWGQGTQVTVSS	high polyreactivity
QDQLVESGGGLVQAGASLRLSCAASGFIFVFNAMGWYRQAPGKERELVAAINGGDITNYADSVKGRFTISRDNAKNTVYLQMTSLKPEDTAVYYCAADGEDSLWTGYDYDYWGQGTQVTVSS	low polyreactivity
QDQLVESGGGLVQAGASLRLSCAASGSIFYHNTMGWYRQAPGKERELLTYYADSVKRRFTISRDNAKNTVYLQMNSLKPEDTAVYYCAASPVSRTGPGDYDYWGQGTQVTVSS	low polyreactivity
QDQLVESGGGLVQAGCSLRLSCDASGSTSYGYAMGWYRQAPGKERELVASISYSGSSTYYADSVKGRFTFSRDNAKNTVYLQMNSLKPEDTAVYYCNAKVYPCVGPKHRYDYWGQCTQVTVSS	low polyreactivity
QDQLVESGGGLVQAGGILRLICAASGLTFASYGMGWYRQAPGKERELVAAISSSGGITYYADSVKGRFTISRDNAKNTVYLQMNSLKPEDTAVYYCAAAKRSGYTGFKYYYWGQGTQVTVSS	high polyreactivity
QDQLVESGGGLVQAGGNLRLSCAASGSIFSDYTIGWYRQAPGKERELVADITLSSGSTYYADSVKGRFTISRDNAKNTVYLQMNSLKPEDTAVYYCAADGWYYFRSGDFEYDYWGHGTQVTVSS	low polyreactivity
QDQLVESGGGLVQAGGRLRLICAAAGLIFVSNAMGWYRQAPGKERELFASISWSGGSTYYADSVKGRFTISRDNAKNTVYLQMNSLKPEDTAVYYCAAAKYVTYLSIYYYWGQGTQVTVSS	high polyreactivity
QDQLVESGGGLVQAGGRLRLSCAASGFIFWLYAMGWYRQAPGKERELVASINWSGGDTYYADSVKGRFTISRDNAKNTVYLQMNSLKPEDTAVYYCAADWSNLGAYDYWGQGTQVTVSS	low polyreactivity
QDQLVESGGGLVQAGGRLRLSCAASGRTFSSYAMGWYRQAPGKERELVAAISRRGSSTFYADSVKGRFTISRDNAKNTVYLQMNSLKPEDTAVYYCNADLSGQTRYDYWVQGTQVTVSS	high polyreactivity
QDQLVESGGGLVQAGGRLRLSCAAYGRIFRRYAMGWYRQAPGKEREFVAAISSGGSTYYADSVKVRFTISRDNAKKYRLFTAEQPETGRYRGLLLRCVRYDVNVYDYWGQGTQVTVSS	low polyreactivity

Sequence	polyreactivity (PSR sort gate)
QDQLVESGGGLVQAGGRLRLTCAASGAIFSNYAMGWYRQAPGKERELLAAITNGVSTNYAVSVKGRLTISRDNAKNTVFLQMNSLKPEDTAVYYCAAVGYRATYRVGGYLRYYYWGQGTQVTVSS	high polyreactivity
QDQLVESGGGLVQAGGSHRLSCAASGRTFYLYAMGWYRHAPGKERELVAGISYRGSRTYYADSVKVRFTISRDYEKNTVYLQMNSLKPEDTAVYYCATPAGQAAYDYWGQGTQVTVSS	high polyreactivity
QDQLVESGGGLVQAGGSLLLSCAASGIIITGNAMVWYRQAPGKERELVAGITGSGGNTYYADCVKGRYTISRDNAKNTFYLQMNSLKPEDTGVYYCAARRHIFLLIIWSGRVDYWGQGTQVTVSS	low polyreactivity
QDQLVESGGGLVQAGGSLRISCAASGRIFRRNTMGRYRQAPGKERELVADINSSDGDTYYADSVKGRFTISRDNAKNTVYLQMNSLKPEDTAVYYCAADLSPLGEMDYWGQGTQVTVSS	low polyreactivity
QDQLVESGGGLVQAGGSLRLICAASGRTFITYSMGWYRQAPGKERELVAAISWNGGTTYYADSVKGRFTISRDNAKNTVYIQMNSLKPEVTAVYYCAGYRWYSAARMGYWGQGTQVTVSS	high polyreactivity
QDQLVESGGGLVQAGGSLRLICAASGSIFDFYTMGWYRQAPGKERELVAAITYSGGRTYYADSVKGRFTISRDNAKNTVYLQMNSLKPEDTAVYYCAASTGSSAYDDYWGQGTQVTVSS	high polyreactivity
QDQLVESGGGLVQAGGSLRLICAASGSIFSKKAMGLYRQAPGKERELVAAISASGASTYYADSVKGRFTISRDNEKNTVYLQMNSLKPEDTSVYYCNADVSGVSSYGLSYEFYYWGQGTQVTVSS	low polyreactivity
QDQLVESGGGLVQAGGSLRLSCAACGIMFGKYAMGWYREAPGKERELVAAITWSGGRTYYADSVTGRFTISRANAKNTVYLPMNSLKPEDTAVYYCAADVKYGYDWGQGTQVTVSS	high polyreactivity
QDQLVESGGGLVQAGGSLRLSCAASGFTFAENAMGWYRQATGKEGELVAAISGSGGSTYYADSVKGRFTISRDNAKNTVYLQMNSLKPEDTAVYYCAADKPRPQYTDDDYWGQGTQVTVSS	high polyreactivity
QDQLVESGGGLVQAGGSLRLSCAASGFTFARNGMGWYRQAPVKEREFVAAITRSGGRTYYADSVKGRFTISRDNAKNTVYLQMNSLKPQDTAVYYCAAATSYGKSEYDYWGQGTQVTVSS	high polyreactivity
QDQLVESGGGLVQAGGSLRLSCAASGFTFDRYAMGWYRQAPGKERELVAAITSSGGSTYYADSVKGRFTISRDNAKNTVYLQMNSLKPEDTAVYYCAVAYSSHTSYYSWGQSTQVTVSS	low polyreactivity
QDQLVESGGGLVQAGGSLRLSCAASGFTFGDNAMGWYRQAPGKERELVAAITSSGSTNYADSVKGRFTISRDNAKNTVYLQMNSLKPEDTAVYYCNAEDSVDAPVYKDLGSEYDSWGQGTQVTVSS	low polyreactivity
QDQLVESGGGLVQAGGSLRLSCAASGFTFGYYAMGWYRQAPGKERELVAAISSGSSTYYADSVKGRFTISRDNAKNTVDLQMISLTPEDTAVFYCAATGDNNTPSGYDYWGQGTQVTVSS	high polyreactivity
QDQLVESGGGLVQAGGSLRLSCAASGFTFNANAMGWYRQAPGKERELVAAITRSGGRTYYADSVKGRFTISRDNAKNTVYLQMNSLKPEDTAVYYCANLVTNGRYDSWGQGTQVTVSS	high polyreactivity
QDQLVESGGGLVQAGGSLRLSCAASGFTFVRYAMVWYRQAPGKERELVAAISSSGGSTYYADSVKGRFTISRDNAKNTVYLQMNSLKPEDTAVYYCADGPFYRFTDGRYKSLDYCGQGTQVTVSS	high polyreactivity
QDQLVESGGGLVQAGGSLRLSCAASGFTFYLYAMGWYRQAPGKERELVAAINGGGSSTYYADSVKGRFTISRDNAKTTVYLEMNSLKPEDTAVYYCNAVYYVVYVKEFDYWGQGTQVTVSS	high polyreactivity
QDQLVESGGGLVQAGGSLRLSCAASGFTFYPYAMGWYRQAAGKERELVASITNGGSTNYADSVKGRFTISRDNAKNTVYLQMNSLKPEDTAVYYCNAAYGFYASRYWYASYDYWGQGTQVTVSS	low polyreactivity
QDQLVESGGGLVQAGGSLRLSCAASGFTFYQYAMGLYIQAPGKERELVASITWNGGSTFYADSVKGRFTISRDNAKNTVYFQMNSLKPEDTAVYYCNVAYVYGSFRRRPMGYWGQGTQVTVSS	high polyreactivity
QDQLVESGGGLVQAGGSLRLSCAASGGIFPAYAMGWYSQAPGKERELVASISANGGRTYYADSVKGRFTISRDNAKNTVYLQMNSLKPEDTAVYYCNKRWLHWSGYDYWGQGTQVTVSS	high polyreactivity
QDQLVESGGGLVQAGGSLRLSCAASGGTFGLNAMGWYRQAPGKERELVADIDGRGGCTYYADSVKGRFTISRDNAQNTVYLQMNSLKPEDTAVYYCAARAPFLSVPTELDYWGQGTQVSVSS	low polyreactivity
QDQLVESGGGLVQAGGSLRLSCAASGIIFAWYVMGWYRQAPGKERELVATITSSGGRTYYADSVKGRFTISRDNAKNTVYLQMNSLKPEDTAVYYCNAALTRAFKHSTGYDYWGQGTQVTVSS	low polyreactivity
